According to article PMC2824750:

Experiments:
[1] = molecular target: in vitro translated 35S-labelled Ehmeth, full length (TNT-Ehmeth) (E. histolytica)
[2] = molecular target: calmodulin, histidine, hemagglutin (CHH)-tagged-Ehmeth (E. histolytica); assay: co-IP; anti-HA immunoprecipitation from nuclear lysate of E. histolytica trophozoites expressing a CHH-tagged protein, HNTG buffer (20 mM Hepes pH 7.5, 150 mM NaCl, 0.1% Triton, 10% glycerol), 4°C; blot with anti-enolase; trophozoites grown in regular medium or starved of glucose for 12 hours

B1: GST-Ehenolase (enzyme)
chain: MSIQKVHAREILDSRGNPTIEVEITTGKGMFRSCVPSGASTGVHEAVELRDGDKKRYGGKGVLKAVENVNTIIGPALLGKNVLNQAELDEMMIKLDGTNNKGKLGANAILGCSMSICRAAAAEKGLPLYKYLAELTGHKEMTMPVPCFNVINGGAHAGNALAMQEFMICPTGATNFHEALRMAAETYQCLKVVIKAKYGQDATNVGDEGGFAPNVSGAREALDLLVEAIAKAGYTGKIEIAMDCAASEFYNEETKKYDLGKKIPADKKDPSLVKDVDGLIAEYVDYGKHYPIASIEDPFAEDDWAAWNKFTVEHGNFQIVGDDLLVTNPARVQMAMDKNACNSVLIKVNQIGTLTETFKTIKMAQEKGWGVMASHRSGETEDTFIADLVVGLNCKQIKTGAPCRSERLCKYNQLMRIEEELGNIPYAGKNWRNSTA
inhibition of the tRNA^Asp methyltransferase activity of recombinant Ehmeth (0.4 nmol) by GST-Enolase (2 nmol) [1]: 60 % inhibition

B2: endogenous enolase of E. histolytica trophozoites (enzyme)
chain: B1 chain
fold more complex after glucose starvation than in regular medium [2]: 3 fold
